Biological target: MHC/IGF2BP3-001 complex on IGF2BP3-001-loaded target cells (human)
Assay: cell-based or functional assay

B1: TCR R10P1A7 (TCR, V domains shown)
V domain 1: GEDVEQSLFLSVREGDSSVINCTYTDSSSTYLYWYKQEPGAGLQLLTYIFSNMDMKQDQRLTVLLNKKDKHLSLRIADTQTGDSAIYFCAESKETRLMFGDGTQLVVKP
V domain 2: GAVVSQHPSWVICKSGTSVKIECRSLDFQATTMFWYRQFPKQSLMLMATSNEGSKATYEQGVEKDKFLINHASLTLSTLTVTSAHPEDSSFYICSARAGGHEQFFGPGTRLTVLE
EC50 (target peptide titration, IFNγ release): ~1 nM
